This test has as its system rat myocardial infarction. As to the kind of experiment: In vivo ischemia/reperfusion injury, fibrosis (Masson's trichrome). The note with it: 1 μg intramyocardial, 4 weeks after ischemia/reperfusion. Here is the method:
FIG. 5C is a series of photographs and a bar graph showing fibrosis. For fibrosis analysis, animals were sacrificed 4 weeks after the initial ischemia/reperfusion injury and serial cryosections of 5 μm thick were made immediately below the ligation area, 10 sections for each heart were analyzed. HASF injected group N=8 rats. PBS injected control group N=6. Brilliant blue color stained collagen area was quantified using ImageJ computer software and the mean of % fibrosis was calculated as collagen positive area/total area. *** P<0.001.
Female Sprague-Dawley rats were used for all in vivo experiments. A midsternal thoracotomy was performed to expose the anterior surface of the heart after anesthesia. The proximal left […] coronary artery (LAD) was identified and a 6.0 suture (Ethicon) was placed around the artery and surrounding myocardium. […]
For fibrosis analysis, animals were sacrificed 4 weeks after the initial 30 min ischemia/24 h reperfusion injury and serial cyrosections of 5 μm thick were made immediately below the ligation area, 10 sections for each heart analyzed, and with 8 rats in HASF protein injected group and 6 rats in PBS injected control group. […] Brilliant blue color stained collagen area was quantified using ImageJ computer software and the mean of % fibrosis was calculated as collagen positive area/total area.

The values below come from patent US20120172306A1, “Use of HASF as a Protective Agent Against Ischemic Tissue Damage” (Duke University, priority 2009, published 2012).

B1: HASF: Hypoxia regulated Akt MSC Factor, secreted protein encoded by C3orf58; recombinant human protein without N-signal sequence, SEQ ID NO:1 or 2 (protein, UniProt Q8NDZ4 36-430, looked up)
Divergent protein kinase …: LASWQRNELTDRRFLQLNKCPACFGTSWCRRFLNGQVVFEAWGRLRLLDFLNVKNVYFAQYGEPREGGRRRVVLKRLGSQRELAQLDQSICKRATGRPRCDLLQAMPRTEFARLNGDVRLLTPEAVEGWSDLVHCPSQRLLDRLVRRYAETKDSGSFLLRNLKDSERMQLLLTLAFNPEPLVLQSFPSDEGWPFAKYLGACGRMVAVNYVGEELWSYFNAPWEKRVDLAWQLMEIAEQLTNNDFEFALYLLDVSFDNFAVGPRDGKVIIVDAENVLVADKRLIRQNKPENWDVWYESKFDDCDKEACLSFSKEILCARATVDHNYYAVCQNLLSRHATWRGTSGGLLHDPPSEIAKDGRLEALLDECANPKKRYGRFQAAKELREYLAQLSNNVR
modifications: 6xHis tag
For B1, the “reduction of infarct fibrosis compared to control untreated animals” value was determined as 61% and the “scar (myocardial fibrosis)” value was 5.7±1.5 % of LV area.
